Data reported in patent US20240226163A1.

Experiments:
Assay in all cases: flow cytometry, peptide-pulsed T2 cells, 100 nM antibody
[1] = biological target: HLA-A*02:01 presenting THBS3 116-125 peptide (…) (human)
[2] = biological target: HLA-A*02:01 presenting MAGE-A10 254-263 peptide (…) (human)
[3] = biological target: HLA-A*02:01 presenting MAGE-A4 230-239 peptide (…) (human)
[4] = biological target: HLA-A*02:01 presenting CELSR3 1594-1603 peptide (…) (human)
[5] = biological target: HLA-A*02:01 presenting CCDC36 417-426 peptide (…) (human)
[6] = biological target: HLA-A*02:01 presenting FAT4 4053-4062 peptide (…) (human)
[7] = biological target: HLA-A*02:01 presenting SCL25A19 111-120 peptide (…) (human)
[8] = biological target: HLA-A*02:01 presenting LPIN2 823-832 peptide (…) (human)
[9] = biological target: HLA-A*02:01 presenting MAGE-A8 232-241 peptide (…) (human)
[10] = biological target: HLA-A*02:01 presenting PAPPA2 307-316 peptide (…) (human)

- Antibody Binding Ratio (pulsed cell MFI/Unpulsed cell MFI) [1]: 1
- Antibody Binding Ratio (pulsed cell MFI/Unpulsed cell MFI) [2]: 1.3
- Antibody Binding Ratio (pulsed cell MFI/Unpulsed cell MFI) [3]: 4.3
- Antibody Binding Ratio (pulsed cell MFI/Unpulsed cell MFI) [4]: 0.9
- Antibody Binding Ratio (pulsed cell MFI/Unpulsed cell MFI) [5]: 1.1
- Antibody Binding Ratio (pulsed cell MFI/Unpulsed cell MFI) [6]: 1.1
- Antibody Binding Ratio (pulsed cell MFI/Unpulsed cell MFI) [7]: 0.9
- Antibody Binding Ratio (pulsed cell MFI/Unpulsed cell MFI) [8]: 0.9
- Antibody Binding Ratio (pulsed cell MFI/Unpulsed cell MFI) [9]: 3.3
- Antibody Binding Ratio (pulsed cell MFI/Unpulsed cell MFI) [10]: 0.9
Substance: mAb1097 (mIgG2a Isotype Control) (antibody)
